Values of other authors, collected in patent US9969737B2, “Fluorescent carbapenems” (Hans Rudolf Pfaendler, priority 2010, dated 2018).

Conditions: comparison; cited from earlier work

For Green Fluorescent Protein, the Stokes shift is given as 114 nm.
